Literature values as cited in article PMC6679882.

Target: IL-18BP (Homo sapiens) (UniProt O95998)
Sequence (O95998 31-194): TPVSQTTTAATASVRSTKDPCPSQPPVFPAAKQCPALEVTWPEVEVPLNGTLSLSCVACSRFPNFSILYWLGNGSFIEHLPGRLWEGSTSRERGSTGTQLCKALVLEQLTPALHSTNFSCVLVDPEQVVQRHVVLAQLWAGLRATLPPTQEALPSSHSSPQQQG

Sequence of IL-18 (Q14116 37-193): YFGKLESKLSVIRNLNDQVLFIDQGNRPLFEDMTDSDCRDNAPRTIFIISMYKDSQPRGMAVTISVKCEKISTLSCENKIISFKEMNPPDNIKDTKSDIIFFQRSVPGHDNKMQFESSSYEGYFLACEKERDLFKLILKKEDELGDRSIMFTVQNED

For IL-18 (from UniProt Q14116), the Kd is listed as 400 pM.
